Publication PMC9882672

Biological target: ferroportin (human (endogenous in HEK 293)) (UniProt Q9NP59)
UniProt Q9NP59, sequence (Q9NP59 whole entry): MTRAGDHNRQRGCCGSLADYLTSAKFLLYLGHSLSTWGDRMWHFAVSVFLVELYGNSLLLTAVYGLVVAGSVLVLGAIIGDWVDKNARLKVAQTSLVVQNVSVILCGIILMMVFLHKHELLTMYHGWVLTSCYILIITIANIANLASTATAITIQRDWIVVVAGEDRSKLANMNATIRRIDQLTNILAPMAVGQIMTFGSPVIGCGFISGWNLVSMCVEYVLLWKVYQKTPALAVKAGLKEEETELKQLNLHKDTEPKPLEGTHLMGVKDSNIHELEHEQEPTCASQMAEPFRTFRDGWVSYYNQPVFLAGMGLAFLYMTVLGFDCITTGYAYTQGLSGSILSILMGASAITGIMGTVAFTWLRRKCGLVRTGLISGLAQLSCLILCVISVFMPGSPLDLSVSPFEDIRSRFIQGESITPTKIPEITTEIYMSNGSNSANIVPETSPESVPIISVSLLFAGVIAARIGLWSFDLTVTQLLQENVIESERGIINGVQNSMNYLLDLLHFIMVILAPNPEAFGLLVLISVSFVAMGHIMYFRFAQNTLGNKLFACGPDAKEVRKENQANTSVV

membrane Fpn of HEK 293 cells with 0.25 μM holo-Tf for 5 to 60 minutes (membrane protein isolation, immunoblot), decrease compared to 0 minutes [%] | membrane Fpn of HEK 293 cells with 500 nM hepcidin for 5 to 60 minutes (membrane protein isolation, immunoblot), decrease compared to holo-Tf treatment [%] | Substance
20 |  | holo (iron bound)-transferrin (from UniProt P02787 20-698) (natural protein)
 | 70 | hepcidin (peptide)
